From patent US7354588B1, “Functional derivatives of ICAM-1 with altered ability to bind LFA-1 or HRV” (Dana Farber Cancer Institute, priority 1987, dated 2008)
Positions count from the first letter of the chain named. “Also recorded” adds a separate entry of the source.

Tests used:
LFA-1 = target: T1, LFA-1 (Homo sapiens, UniProt P05107+P20701); assay: Adherence of COS cells expressing ICAM-1 or ICAM-1 mutants to plastic-bound purified LFA-1; format: cell-based; details: for LFA-1 Binding %: COS cells expressing ICAM-1 mutant adhering to LFA-1 coated plastic, normalized for percent of cells expressing mutant and for wild type binding, mean
T1 construct: endogenous in cells
T1 sequence (P20701 26-1170): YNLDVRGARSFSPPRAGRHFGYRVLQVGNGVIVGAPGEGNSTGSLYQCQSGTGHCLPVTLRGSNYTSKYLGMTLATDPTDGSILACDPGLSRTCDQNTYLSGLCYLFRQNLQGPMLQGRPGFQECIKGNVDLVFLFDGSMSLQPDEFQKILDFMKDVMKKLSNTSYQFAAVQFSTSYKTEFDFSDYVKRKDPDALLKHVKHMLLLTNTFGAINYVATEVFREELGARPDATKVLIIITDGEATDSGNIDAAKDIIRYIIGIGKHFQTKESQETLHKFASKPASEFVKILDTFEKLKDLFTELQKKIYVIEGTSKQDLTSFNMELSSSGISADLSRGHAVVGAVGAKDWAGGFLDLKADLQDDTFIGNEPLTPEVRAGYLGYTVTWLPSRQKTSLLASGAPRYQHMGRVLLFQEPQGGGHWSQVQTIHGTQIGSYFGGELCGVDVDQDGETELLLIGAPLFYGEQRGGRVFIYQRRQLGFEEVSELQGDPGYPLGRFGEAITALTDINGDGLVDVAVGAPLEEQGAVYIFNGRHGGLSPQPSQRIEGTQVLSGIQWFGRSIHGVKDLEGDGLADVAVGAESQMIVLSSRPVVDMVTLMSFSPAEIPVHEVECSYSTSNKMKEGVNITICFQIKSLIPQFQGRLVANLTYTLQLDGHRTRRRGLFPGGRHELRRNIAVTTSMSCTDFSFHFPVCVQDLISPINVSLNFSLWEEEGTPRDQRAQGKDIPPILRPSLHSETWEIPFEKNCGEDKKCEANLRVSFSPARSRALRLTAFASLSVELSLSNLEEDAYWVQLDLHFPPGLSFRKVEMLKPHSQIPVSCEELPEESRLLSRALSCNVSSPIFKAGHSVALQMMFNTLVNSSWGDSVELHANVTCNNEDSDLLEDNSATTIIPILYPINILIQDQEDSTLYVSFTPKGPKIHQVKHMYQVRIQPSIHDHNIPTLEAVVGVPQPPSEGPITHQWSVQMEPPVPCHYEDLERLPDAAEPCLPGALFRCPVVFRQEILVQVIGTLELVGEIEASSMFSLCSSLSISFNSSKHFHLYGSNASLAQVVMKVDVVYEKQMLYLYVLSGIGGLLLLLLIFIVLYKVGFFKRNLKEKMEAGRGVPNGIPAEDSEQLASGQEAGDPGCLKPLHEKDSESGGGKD
T1 sequence (P05107 23-769): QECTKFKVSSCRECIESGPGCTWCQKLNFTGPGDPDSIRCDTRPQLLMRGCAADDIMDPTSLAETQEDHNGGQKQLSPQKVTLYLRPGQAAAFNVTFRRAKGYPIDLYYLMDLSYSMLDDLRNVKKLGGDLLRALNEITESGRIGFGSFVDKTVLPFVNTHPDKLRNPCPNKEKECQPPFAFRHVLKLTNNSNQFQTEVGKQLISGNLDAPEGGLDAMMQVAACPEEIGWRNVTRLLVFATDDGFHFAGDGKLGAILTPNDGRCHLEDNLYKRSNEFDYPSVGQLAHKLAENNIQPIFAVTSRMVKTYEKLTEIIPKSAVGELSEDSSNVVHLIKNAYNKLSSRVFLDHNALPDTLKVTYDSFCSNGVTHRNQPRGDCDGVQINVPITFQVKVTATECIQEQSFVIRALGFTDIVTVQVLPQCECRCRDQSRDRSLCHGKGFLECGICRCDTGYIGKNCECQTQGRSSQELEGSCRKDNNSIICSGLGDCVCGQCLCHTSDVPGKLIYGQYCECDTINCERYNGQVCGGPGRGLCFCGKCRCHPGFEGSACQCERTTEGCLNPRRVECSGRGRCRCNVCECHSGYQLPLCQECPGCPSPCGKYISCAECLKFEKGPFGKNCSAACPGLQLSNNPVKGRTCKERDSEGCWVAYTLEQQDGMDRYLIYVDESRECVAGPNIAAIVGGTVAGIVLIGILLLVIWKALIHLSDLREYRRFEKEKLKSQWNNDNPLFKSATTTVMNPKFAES

HRV14 = assay: Binding of [^35S]-Met labeled HRV14 to COS cells expressing ICAM-1 mutants; format: cell-based, human rhinovirus 14; details: for HRV Binding %: 35S met-labeled HRV14 binding to COS cells expressing ICAM-1 mutant, normalized for percent of cells expressing mutant and for wild type binding, mean
CL203 mAb = assay: Indirect immunofluorescence flow cytofluorometry: mAb CL203 binding to COS cells expressing ICAM-1 mutants (SLFI, % WT); format: cell-based; details: SLFI of CL203 for mutant normalized to wild type CL203 SLFI; level of expression
Experimental: (§1) For HRV binding studies, COS cells were reseeded in a 24 well plate. One day later, the confluent monolayer was washed twice with 1 ml of RPMI 1640/10 mM MgCl2/25 mM Hepes pH 7.3 (rhinovirus-14 buffer). Transfected COS cells were labeled with 51Cr for binding to LFA-1 coated plastic as previously described (Staunton, D. E., et al., Nature 339:61-64 (1989). Immunoprecipitation and indirect immunofluorescence was performed using ICAM-1 MAb RR1/1 (Rothlein, R., et al., J. Immunol. 137:1270-1274 (1986)), R6.5 (Rothlein, R., et al., J. Immunol. 141:1665-1669 (1988)), LB-1 (Clark, E. A., et al., Hum. Immunol. 16:100-113 (1986)) and CL203 (Maio, M., J. Immunol. 143:181-188 (1989), all of which references are incorporated herein by reference).
(§2) Binding of RR1, R6.5, and LB-2 mAb was normalized to binding of CL203 mAb using Specific Linear Fluorescence Intensity (SLFI): % CL203=(mAbSLFI)×100)/CL203mABSLFI
(§3) In Table 25, the notation for the mutations uses the one-letter code for the wild-type sequence followed by a slash and the one-letter code for the corresponding mutant sequence. The position of the first amino acid within the sequence is indicated. Wild type residues precede the slash followed by the residues they were substituted for in the mutant. COS cells expressing ICAM-1 mutants were tested for adherence to LFA-1 coated plastic and for binding 35S met-labeled HRV14. LFA-1 and HRV14 binding is normalized for percent of cells expressing mutant ICAM-1 and for binding of wild type expressing cells. Binding is presented as mean and standard error (SE) for multiple experiments (n). Effects of two-fold or greater were reproducible in LFA-1, HRV and mAb binding assays and thus considered significant (bold and underlined). The specific linear fluorescence intensity (SLFI) of CL203 for each mutant is normalized to that of wild type CL203 SLFI (% WT) as discussed above. The SLFI of RR1/1, R6.5 and LB-2 SLFI is normalized to the CL203 SLFI of the mutant (% CL203) as described above.

RR1/1 mAb = assay: Indirect immunofluorescence flow cytofluorometry: mAb RR1/1 binding to COS cells expressing ICAM-1 mutants (SLFI, % CL203); format: cell-based; details: SLFI normalized to CL203 SLFI of the mutant
Experimental: as §1, §2, §3

R6.5 mAb = assay: Indirect immunofluorescence flow cytofluorometry: mAb R6.5 binding to COS cells expressing ICAM-1 mutants (SLFI, % CL203); format: cell-based; details: SLFI normalized to CL203 SLFI of the mutant
Experimental: as §1, §2, §3

LB-2 mAb = assay: Indirect immunofluorescence flow cytofluorometry: mAb LB-2 binding to COS cells expressing ICAM-1 mutants (SLFI, % CL203); format: cell-based; details: SLFI normalized to CL203 SLFI of the mutant
Experimental: as §1, §2, §3

[1] = COS cells expressing the mutant, relative to wild type

B1: V4/G: ICAM-1 mutant, replacement of V4 with G (protein, UniProt P05362 28-532, looked up, variant V4G)
Intercellular adhesion …: QTSGSPSKVILPRGGSVLVTCSTSCDQPKLLGIETPLPKKELLLPGNNRKVYELSNVQEDSQPMCYSNCPDGQSTAKTFLTVYWTPERVELAPLPSWQPVGKNLTLRCQVEGGAPRANLTVVLLRGEKELKREPAVGEPAEVTTTVLVRRDHHGANFSCRTELDLRPQGLELFENTSAPYQLQTFVLPATPPQLVSPRVLEVDTQGTVVCSLDGLFPVSEAQVHLALGDQRLNPTVTYGNDSFSAKASVSVTAEDEGTQRLTCAVILGNQSQETLQTVTIYSFPAPNVILTKPEVSEGTEVTVKCEAHPRAKVTLNGVPAQPLGPRAQLLLKATPEDNGRSFSCSATLEVAGQLIHKNQTRELRVLYGPRLDERDCPGNWTWPENSQQTPMCQAWGNPLPELKCLKDGTFPLPIGESVTVTRDLEGTYLCRARSTQGEVTRKVTVNVLSPRYEIVIITVVAAAVIMGTAGLSTYLYNRQRKIKKYRLQQAQKGTPMKPNTQATPP
LFA-1 Binding % (LFA-1): 64% | LFA-1 binding of ICAM-1 mutant (in words) (LFA-1; [1]): less able to bind to LFA-1 | HRV Binding % (HRV14): 30% | Cl203 % WT (SLFI) (CL203 mAb): 111 % WT | SLFI (% CL203) RR/1 (RR1/1 mAb): 47 % CL203 | SLFI (% CL203) R6.5 (R6.5 mAb): 73 % CL203 | SLFI (% CL203) LB-2 (LB-2 mAb): 58 % CL203

B2: E34/A: ICAM-1 substitution mutant, E34 replaced with A (protein, UniProt P05362 28-532, looked up, variant E34A)
Intercellular adhesion …: B1 Intercellular adhesion … with G4V, E34A
LFA-1 Binding % (LFA-1): 0% | LFA-1 binding of ICAM-1 mutant (in words) (LFA-1; [1]): completely eliminates LFA-1 binding; also recorded: totally eliminates LFA-1 binding | LFA-1 binding of ICAM-1 mutant (in words) (LFA-1; COS cells expressing the mutant, relative to wild type, listed as E34): substantially less capacity to bind LFA-1 | HRV Binding % (HRV14): 66% | HRV14 binding of ICAM-1 mutant (in words) (HRV14; [1]): weak or a non-detectable affect on HRV binding | decrease in HRV14 binding (HRV14; [1]): 2 fold | Cl203 % WT (SLFI) (CL203 mAb): 132 % WT | SLFI (% CL203) RR/1 (RR1/1 mAb): 142 % CL203 | SLFI (% CL203) R6.5 (R6.5 mAb): 150 % CL203 | SLFI (% CL203) LB-2 (LB-2 mAb): 142 % CL203

B3: N175/A: ICAM-1 mutant, glycosylation site N175 replaced with A (protein, UniProt P05362 28-532, looked up, variant N175A)
Intercellular adhesion …: B1 Intercellular adhesion … with G4V, N175A
LFA-1 Binding % (LFA-1): 67% | LFA-1 binding of ICAM-1 mutant (in words) (LFA-1; [1]): did not appear to substantially effect | decrease in LFA-1 binding (LFA-1; [1]): approximately two-fold | HRV Binding % (HRV14): 129% | Cl203 % WT (SLFI) (CL203 mAb): 80 % WT | SLFI (% CL203) RR/1 (RR1/1 mAb): 162 % CL203 | SLFI (% CL203) R6.5 (R6.5 mAb): 175 % CL203 | SLFI (% CL203) LB-2 (LB-2 mAb): 150 % CL203

B4: N103/K: ICAM-1 mutant, replacement of N103 with K (protein, UniProt P05362 28-532, looked up, variant N103K)
Intercellular adhesion …: B1 Intercellular adhesion … with G4V, N103K
LFA-1 Binding % (LFA-1): 12% | LFA-1 binding of ICAM-1 mutant (in words) (LFA-1; [1]): substantially incapable of binding LFA-1 | HRV Binding % (HRV14): 13% | Cl203 % WT (SLFI) (CL203 mAb): 91 % WT | SLFI (% CL203) RR/1 (RR1/1 mAb): 17 % CL203 | SLFI (% CL203) R6.5 (R6.5 mAb): 60 % CL203 | SLFI (% CL203) LB-2 (LB-2 mAb): 22 % CL203

B5: Q58/H: ICAM-1 substitution mutant, Q58 replaced with H (protein, UniProt P05362 28-532, looked up, variant Q58H)
Intercellular adhesion …: B1 Intercellular adhesion … with G4V, Q58H
LFA-1 Binding % (LFA-1): 109% | LFA-1 binding of ICAM-1 mutant (in words) (LFA-1; [1]): substantially normal capacity to bind LFA-1 | HRV Binding % (HRV14): 1% | HRV14 binding of ICAM-1 mutant (in words) (HRV14; [1]): virtually eliminated HRV14 binding | Cl203 % WT (SLFI) (CL203 mAb): 135 % WT | SLFI (% CL203) RR/1 (RR1/1 mAb): 93 % CL203 | SLFI (% CL203) R6.5 (R6.5 mAb): 107 % CL203 | SLFI (% CL203) LB-2 (LB-2 mAb): 93 % CL203

B6: R13/E: ICAM-1 mutant, replacement of R13 with E (protein, UniProt P05362 28-532, looked up, variant R13E)
Intercellular adhesion …: B1 Intercellular adhesion … with G4V, R13E
LFA-1 Binding % (LFA-1): 1% | LFA-1 binding of ICAM-1 mutant (in words) (LFA-1; [1]): substantially less capacity to bind LFA-1 | HRV Binding % (HRV14): 10% | Cl203 % WT (SLFI) (CL203 mAb): 202 % WT | SLFI (% CL203) RR/1 (RR1/1 mAb): 4 % CL203 | SLFI (% CL203) R6.5 (R6.5 mAb): 48 % CL203 | SLFI (% CL203) LB-2 (LB-2 mAb): 4 % CL203
